{
  "source": "patent US8710180B2",
  "about": "“VEGF-specific capture agents, compositions, and methods of using and making” (Indi Molecular, Inc., priority 2011, dated 2014)",
  "key": {"[1]": {"assay": "plasma protein binding by equilibrium dialysis", "type": "in vitro ADME", "settings": "10 μM, 37° C. overnight", "method": "Equilibrium dialysis techniques were used to separate the fraction of unbound test compound from the fraction that is bound to protein.\nAssays were carried out in a 96-well format in a dialysis block constructed from Teflon. The protein matrix was spiked with the test compound at 10 μM (n=2) with a final DMSO concentration of 1% (v/v). The dialysate compartment was loaded with 150 μL phosphate buffer (pH 7.5) and the sample side was loaded with equal volume of the spiked protein matrix. The dialysis plate was then sealed and incubated at 37° C. overnight (18±2 hours). After the incubation, samples were taken from each compartment, diluted with the phosphate buffer followed by addition of acetonitrile and centrifugation. The supernatants were then used for HPLC-MS/MS analysis. A control sample (n=2) was prepared from the spiked protein matrix in the same manner as the assay samples (without dialysis). This control sample served as the basis for the recovery determination. Samples were analyzed by HPLC-MS/MS using selected reaction monitoring. The HPLC conditions consisted of a binary LC pump with autosampler, a C18 column (2×20 mm), and gradient elution. The percent bound to proteins and the recovery were calculated as follows:\n[formula] […] The recovery determination served as an indicator of reliability of the calculated protein binding value."}, "[2]": {"biological_target": "T1, human VEGF165 binding to VEGFR2 (KDR) (Homo sapiens, UniProt P15692)", "T1 construct": "biotin (chemical labelling, Sulfo-NHS-LC-biotin); purchased R&D Systems (partner VEGFR2-Fc only)", "T1 sequence (P15692 27-191 isoform P15692-4)": "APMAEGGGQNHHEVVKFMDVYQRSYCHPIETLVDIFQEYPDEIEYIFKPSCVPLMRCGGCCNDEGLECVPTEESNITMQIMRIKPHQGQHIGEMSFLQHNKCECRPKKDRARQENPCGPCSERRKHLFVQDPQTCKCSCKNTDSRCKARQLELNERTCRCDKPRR", "assay": "competitive ELISA, inhibition of VEGF165 binding to VEGFR2", "settings": "concentrations tested <50 μM", "method": "The solutions from the tubes were then transferred to the ELISA plates and incubated for 5 minutes. […] Using an excitation wavelength of 535 nm, fluorescent emission at 595 nm was recorded by Beckman Coulter DTX880 photometer (Brea, Calif.) as a function of capture agent concentration. The titration curves were fit using a four-parameter regression curve fitting program (Origin 8.5, Northampton, Mass.). Concentrations of peptides corresponding to the midpoint absorbance of the titration curve were calculated and used as the IC50 values."}, "VEGF165 [3]": {"biological_target": "T2, VEGF165 (Homo sapiens, UniProt P15692)", "T2 construct": "purchased Abcam ab56620", "T2 sequence (P15692 27-191 isoform P15692-4)": "T1 sequence (P15692 27-191 isoform P15692-4)", "assay": "direct solid-phase ELISA, binding of capture agents to VEGF165", "settings": "immobilized VEGF165; KD estimated as concentration at half-maximal fluorescent emission", "method": "The equilibrium dissociation constant (KD) for the capture agents may be estimated as the concentration corresponding to half-maximal fluorescent emission. Assaying multiple capture agents in parallel permits relative and absolute comparison of in vitro binding.\nAfter washing each well with PBS (3×), the plate was filled with 5% non-fat dry milk in TBS (25 mM Tris, 150 mM NaCl, pH 7.25) containing 0.1% (v/v) Triton X-100 and blocked for 2 hours at 25° C. […] After washing all microwells with TBS/0.1%(v/v) Triton X-100 (5×), 0.1 μg/mL Streptavidin Poly-HRP conjugate (Pierce, Ill.) in TBS/0.1%(v/v) Triton X-100 was incubated for 30 minutes at 25° C. The plate was aspirated and washed with TBS/0.1% (v/v) Triton X-100 (5×), followed by TBS (5×), and then developed by adding QuantaRed^TM Enhanced Chemifluorescent HRP Substrate. Using an excitation wavelength of 535 nm, fluorescent emission at 595 nm was recorded by Beckman Coulter DTX880 photometer (Brea, Calif.) as a function of capture agent concentration. The titration curves were fit using a four-parameter regression curve fitting program (Origin 8.5, Northampton, Mass.)."}, "[4]": {"biological_target": "T3, VEGF165 binding to Avastin® Fab (Homo sapiens, UniProt P15692)", "T3 construct": "biotin (chemical labelling)", "T3 sequence (P15692 27-191 isoform P15692-4)": "T1 sequence (P15692 27-191 isoform P15692-4)", "assay": "competitive ELISA, inhibition of VEGF165 binding to Avastin Fab", "settings": "10 nM biotinylated VEGF165, Avastin Fab coated plate", "method": "Using an excitation wavelength of 535 nm, fluorescent emission at 595 nm was recorded by Beckman Coulter DTX880 photometer (Brea, Calif.) as a function of capture agent concentration. The titration curves were fit using a four-parameter regression curve fitting program (Origin 8.5, Northampton, Mass.). Concentrations of peptides corresponding to the midpoint absorbance of the titration curve were calculated and used as the IC50 values."}, "VEGF165 [5]": {"biological_target": "T2, VEGF165", "assay": "pull-down (immunoprecipitation) of VEGF165 from spiked buffer or human serum, Western blot and silver stain", "type": "binding", "settings": "VEGF165-spiked buffer (B) vs 25% human serum (S)", "method": "A pull-down assay was used to assess capture agent specificity for VEGF by measuring the ability of the capture agents to purify VEGF165 from buffer or complex media such as human serum. Capture agents were immobilized on streptavidin-functionalized magnetic beads, and the resultant resins were panned with VEGF165-spiked serum or buffer.\nPull-down detection of VEGF165 was performed using a modified immunoprecipitation technique that incorporated capture agents rather than antibody. […] A vehicle-only control (0.1% DMSO, v/v) accompanied each sample.\nProteins were captured by BSA-blocked Dynabeads® M-280 Streptavidin (Invitrogen, #112-05D) under rotation at 4° C. for 4 hours (100 μL of 50% slurry per pull-down condition). Beads were separated from the serum or buffer matrix by application of the DynaMag™-Spin magnet (Invitrogen, #123-20D), and captured proteins were eluted from the beads in 30 μL of reducing Laemmli buffer. Eluted samples were subjected to 12% SDS-PAGE separation at 200 V for 30 minutes in 1×TGS (25 mM Tris, 192 mM Glycine, 0.1% SDS (w/v), pH 8.3). Samples were subsequently electrophoretically transferred to a nitrocellulose membrane in 25 mM Tris, 192 mM Glycine, pH 8.3, containing 20% (v/v) methanol (Bio-Rad Laboratories, Hercules, Calif.) at 100 V for 45 minutes. […]"}},
  "note": "Az4 = C-terminal azide group; code X = not defined here",
  "data": [
    {"compound": "C=C(NC(=O)[C@@H]1CCCN1C(=O)[C@H](CCC(=O)O)NC(=O)[C@@H](C)C(C)C)C(=O)N[C@@H]1CSSCC(C(=O)N[C@@H](Cc2ccccc2)C(=O)NC(CCC(=O)O)C(=O)NC(CCCN)C(=O)N[C@@H](CC(C)C)C(=O)NC(CCCCn2cc(CC(N)C(=O)NC(Cc3ccccc3)C(=O)N[C@H](CO)C(=O)N[C@H](CCCNC(=N)N)C(=O)NC(CCCCN)C(=O)N[C@@H](C(=O)NC(CCC(=O)O)C(N)=O)C(C)O)nn2)C(=O)O)NC(=O)[C@H](CCC(=O)O)NC(=O)[C@H](Cc2c[nH]c3ccccc23)NC(=O)[C@H](CCC(=O)O)NC(=O)[C@H](Cc2c[nH]c3ccccc23)NC(=O)[C@H](CCSC)NC(=O)[C@H](C(C)C)NC(=O)[C@H](Cc2cnc[nH]2)NC(=O)C([C@@H](C)CC)NC(=O)[C@H](CC(=O)O)NC1=O", "note": "(some centres unmarked) [Biligand 3]", "values": [
      {"measurement": "plasma protein binding", "setting": "[1]", "value": "higher levels of plasma protein binding"}
    ]},
    {"compound": "X-VEPNCDIHVMWEWECFERL-Az4 ({code X}-VEPNCDIHVMWEWECFERL-Az4; cysteine pairing not given here; reading uncertain) [anchor, reference compound]", "values": [
      {"measurement": "blocking of receptor binding at the concentrations tested", "setting": "[2]", "value": "Neither the anchor nor Biligand 2 blocked receptor binding"}
    ]},
    {"compound": "X-VEPNCDIHVMWEWECFERL-Tz4-lfrew-Tz4-eeird [Triligand 2]", "values": [
      {"measurement": "Kd", "setting": "VEGF165 [3]", "value": "~15", "unit": "nM"},
      {"measurement": "IC50", "setting": "[4]", "value": 400, "unit": "nM"},
      {"measurement": "capture of VEGF in buffer vs. serum", "setting": "VEGF165 [5]", "value": "captures equivalent amounts of VEGF in buffer and serum"}
    ]}
  ]
}
